From US20100143349A1 (Pfizer, published 2010)
Where a chain is given by its changes, count along the chain named. Where “and” joins values, the source holds several entries; their conditions need not be identical. Identical values can stand only once.

B1: parental XT-M4 scFv (VH 2.0, VL 2.11), VL-VH format (scFv)
scFv: DIQMTQSPSSLSASVGDRVTITCRASQDVGIYVNWFQQKPGKAPRRLIYRATNLADGVPSRFSGSRSGTDFTLTISSLQPEDFATYYCLEFDEHPLTFGGGTKVEIKDGGGSGGGGSGGGGSSEVQLVESGGGLVQPGGSLRLSCAASGFTFNNYWMTWVRQAPGKGLEWVASIDNSGDNTYYPDSVKDRFTISRDNAKNSLYLQMNSLRAEDTAVYYCARGGDITTGFDYWGQGTLVTVSS
notes: also called M4WT
B2: S2R4A3_10H6 scFv (scFv)
scFv: B1 scFv with R18G, R24Q, D108N, F229L, V240E
notes: also called 10H6 (a)
B3: S2R4A4_1G6 scFv (scFv)
scFv: B1 scFv with I31F, T227N
B4: S1R5A1_3B3 scFv (scFv)
scFv: B1 scFv with I31F, F229L
B5: S2R4A3_5A3 scFv (scFv)
scFv: B1 scFv with R18I, G68S, Q205K, A220T, F229L
B6: S2R3A1_8G9 scFv (scFv)
scFv: B1 scFv with G139S, F229L
B7: S2R3A1_5H3 scFv (scFv)
scFv: B1 scFv with Y49D, Q126L
B8: S2R4A3_10D8 scFv (scFv)
scFv: B1 scFv with R18K, I31F, G114N, G133E
notes: also called 10D8 (b)
B9: S2R3A1_2E6 scFv (scFv)
scFv: B1 scFv with S122N, G132V, T227N, F229L
notes: also called 2E6 (c)
B10: S1R5A1_10G10 scFv (scFv)
scFv: B1 scFv with K103R, T158S, D179E
B11: parental XT-M4 scFv-Fc fusion (Fc fusion)
chain: B1 scFv
notes: Bivalent scFv-Fc made in COS cells; not shown: wild-type human IgG Fc (hinge and constant domains)
B12: 6G4 scFv-Fc fusion (Fc fusion)
chain: B1 scFv with T226L, T227D, G228S, F229L, D230H, Y231F
notes: Assayed separately; fold gain against the M4 value of the ribosome display set; not shown: wild-type human IgG Fc (hinge and constant domains)

target: T1, hRAGE-Fc (human, UniProt Q15109 23-342, biotin label in the selections and HTRF assays); assay: HTRF competition, scFv vs labelled parental XT-M4 (competitor) on hRAGE
T1 construct: extracellular domain; also called biotin labeled hRAGE-Fc; Biotin-labeled RAGE-Fc; not shown: Fc part
Protocol: (§1) Increases in binding to RAGE antigen were detected with the aid of a competition assay using parental XT-M4 antibody. Both phage display and ribosome display libraries were selected for affinity improved variants by incubating with biotin labeled hRAGE-Fc, recovering binding clones using streptavidin magnetic beads and washing away non binding variants. Sequential rounds of selection were carried on decreasing antigen concentrations to drive the preferential recovery of higher affinity variants. Clones recovered after selection were subsequently screening for improved binding to hRAGE-Fc using HTRF. This is an assay that measures the decrease in fluorescence upon binding of parental europium cryptate-labeled XT-M4 to RAGE in the presence of competing test scFv antibodies. In these assays, periplasmic preparations of scFv were prepared from bacterial cultures and added in increasing concentrations to a combination of parental antibody and antigen. The ability of the scFV to compete with parental XT-M4 antibody to bind to Biotin-labeled RAGE-Fc was determined. In the presence of avidin-XL665 complex labeled XT-M4 bound to biotinylated RAGE-FC was detected by Fluorescence. Increasing amounts of scFv that competed with the XT-M4 for binding to biotinylated-RAGE-Fc was detected as a decrease in fluorescence. A sequential process of screening was used to focus in on a smaller number of clones with the greatest competition in HTRF assay

T1 sequence (Q15109 23-342): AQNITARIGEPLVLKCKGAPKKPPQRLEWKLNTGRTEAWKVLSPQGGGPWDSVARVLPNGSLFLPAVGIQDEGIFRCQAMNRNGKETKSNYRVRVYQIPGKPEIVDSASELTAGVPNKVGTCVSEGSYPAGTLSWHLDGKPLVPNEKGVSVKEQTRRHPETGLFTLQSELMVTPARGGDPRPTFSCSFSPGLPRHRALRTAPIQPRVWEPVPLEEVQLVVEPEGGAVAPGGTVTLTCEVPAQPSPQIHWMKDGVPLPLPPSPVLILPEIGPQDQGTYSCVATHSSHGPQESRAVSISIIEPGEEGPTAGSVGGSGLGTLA

IC50 | Binder
33 nM | B1
0.3 nM | B2
1.2 nM | B3
2.2 nM | B4
3 nM | B5
2.4 nM | B6
8.2 nM | B7
2.6 nM | B8
1.9 nM | B9
16.3 nM | B10

target: T2, human RAGE expressed on CHO cells (human, UniProt Q15109 23-404); assay: cell ELISA on CHO-RAGE cells, A450 corrected for control CHO cells; phage display set
T2 construct: whole, on cells; also called CHO-RAGE cells; cell surface expressed human RAGE
Protocol: (§2) Stably transfected Chinese Hamster Ovary (CHO) cells were engineered to express murine and human RAGE full length proteins. The murine and human RAGE cDNAs were cloned into the mammalian expression vector pSMED, linearized and transfected into CHO cells using lipofectin methods (Kaufman, R. J., 1990, Methods in Enzymology 185:537-66; Kaufman, R. J., 1990, Methods in Enzymology 185:487-511; Pittman, D. D. et al., 1993, Methods in Enzymology 222: 236). Cells were further selected in 20 nM methotrexate and cell extracts were harvested from individual clones and analyzed by SDS sodium dodecyl sulfate-polyacrylamide gel electrophoresis (SDS-PAGE) and Western blotting to confirm expression. […] Absorbance 450 nm values were corrected for the same clones binding to control CHO cells not expressing RAGE. EC50 values were calculated after curve fitting using GraphPad prism and are expressed in μg/ml.

T2 sequence (Q15109 23-404): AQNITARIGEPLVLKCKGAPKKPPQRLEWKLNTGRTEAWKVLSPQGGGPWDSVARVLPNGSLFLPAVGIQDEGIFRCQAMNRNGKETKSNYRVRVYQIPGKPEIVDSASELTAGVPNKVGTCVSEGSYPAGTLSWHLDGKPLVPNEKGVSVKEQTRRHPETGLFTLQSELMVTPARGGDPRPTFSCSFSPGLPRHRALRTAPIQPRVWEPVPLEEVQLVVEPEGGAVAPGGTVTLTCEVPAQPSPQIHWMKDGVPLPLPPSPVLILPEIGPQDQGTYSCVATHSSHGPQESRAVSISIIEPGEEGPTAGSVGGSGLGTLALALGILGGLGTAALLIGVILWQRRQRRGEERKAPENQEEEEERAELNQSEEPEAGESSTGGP

EC50 | Binder
0.408 µg/mL | B11

target: T1, hRAGE-Fc; assay: IC50 of parental M4 scFv over IC50 of clone, HTRF competition
Protocol: as §1

Fold gain scFv (hRAGE) | Binder
110 fold | B2
21.5 fold | B3
15 fold | B4
11 fold | B5
13.8 fold | B6
4 fold | B7
12.7 fold | B8
17.3 fold | B9
2 fold | B10

target: T3, HU-RAGE-SA (human, UniProt Q15109 23-342); assay: BIAcore, 10 nM scFv-Fc over directly immobilized HU-RAGE-SA, 1:1 fit
T3 construct: extracellular domain; Directly immobilized on a CM5 chip (~100 RU); also called hRAGE-SA; soluble human streptavidin-tagged RAGE; not shown: streptavidin tag (SA)
T3 sequence (Q15109 23-342): as the sequence (Q15109 23-342) above

koff | Binder
0.0293 s⁻¹ and 0.0291 s⁻¹ | B11
0.00388 s⁻¹ | B12

target: T2, human RAGE expressed on CHO cells; assay: cell ELISA on CHO-RAGE cells, A450 corrected for control CHO cells; ribosome display set
Protocol: as §2

EC50 | Binder
0.388 µg/mL | B11

target: T2, human RAGE expressed on CHO cells; assay: cell ELISA on CHO-RAGE cells, A450 corrected for control CHO cells
Protocol: as §2

EC50 | Binder
0.172 µg/mL | B12

target: T1, hRAGE-Fc; assay: IC50 of parental M4 scFv-Fc (value of the ribosome display set) over IC50 of clone, HTRF competition

Fold gain scFv-Fc (hRAGE) | Binder
11.1 fold | B12

target: T3, HU-RAGE-SA; assay: BIAcore kd against parental M4 scFv-Fc

Fold change in kd | Binder
7.6 fold | B12

target: T1, hRAGE-Fc; assay: HTRF competition, scFv vs labelled parental XT-M4 (competitor) on biotin hRAGE-Fc
Protocol: as §1

IC50 | Binder
33.2 nM | B1

target: T1, hRAGE-Fc; assay: as above; remark: another data set of the same source
Protocol: as §1

IC50 | Binder
33 nM | B1
0.3 nM | B2
1.2 nM | B3
2.2 nM | B4
~3 nM | B5
~2.4 nM | B6
8.2 nM | B7
2.6 nM | B8
1.9 nM | B9
16.3 nM | B10
